# Values quoted from earlier work in publication PMC5904255.
# Biological target: C1q (Homo sapiens) (UniProt P02745)
# Sequence (P02745 23-245, chain 1 of 3): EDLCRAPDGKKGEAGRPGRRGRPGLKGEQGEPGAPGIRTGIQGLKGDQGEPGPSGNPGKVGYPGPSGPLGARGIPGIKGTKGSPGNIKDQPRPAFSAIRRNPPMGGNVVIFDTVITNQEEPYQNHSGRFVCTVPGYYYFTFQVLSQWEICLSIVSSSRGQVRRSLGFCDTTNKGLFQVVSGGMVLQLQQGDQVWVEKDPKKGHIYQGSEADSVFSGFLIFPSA
# Sequence (P02746 28-253, chain 2 of 3, further chain): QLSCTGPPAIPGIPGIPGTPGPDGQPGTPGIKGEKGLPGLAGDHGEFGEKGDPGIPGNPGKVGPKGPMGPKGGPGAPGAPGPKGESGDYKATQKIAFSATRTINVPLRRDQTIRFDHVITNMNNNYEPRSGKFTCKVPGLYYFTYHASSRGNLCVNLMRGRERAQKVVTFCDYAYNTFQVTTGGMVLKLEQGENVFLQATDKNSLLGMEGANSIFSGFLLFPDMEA
# Sequence (P02747 29-245, chain 3 of 3, further chain): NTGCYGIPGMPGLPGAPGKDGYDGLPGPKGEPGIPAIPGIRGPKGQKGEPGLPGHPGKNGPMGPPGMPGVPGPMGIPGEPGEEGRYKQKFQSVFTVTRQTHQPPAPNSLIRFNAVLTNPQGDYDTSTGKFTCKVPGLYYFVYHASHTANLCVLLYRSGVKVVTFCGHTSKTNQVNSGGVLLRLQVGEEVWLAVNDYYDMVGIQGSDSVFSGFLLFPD
# HMGB1, sequence (P09429 whole entry): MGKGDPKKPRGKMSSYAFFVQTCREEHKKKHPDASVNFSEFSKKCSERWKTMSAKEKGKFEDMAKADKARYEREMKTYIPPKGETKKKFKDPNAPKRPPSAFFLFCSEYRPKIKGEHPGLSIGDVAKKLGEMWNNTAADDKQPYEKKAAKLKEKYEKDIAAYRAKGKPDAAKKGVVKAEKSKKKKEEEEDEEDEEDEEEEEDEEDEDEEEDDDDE
substance,measurement,value
HMGB1 (from UniProt P09429),Kd,200 nM
